One assay addresses T1, G9a and GLP (Homo sapiens, UniProt Q96KQ7+Q9H9B1).
T1 sequence (Q96KQ7 2-1210 limits assumed): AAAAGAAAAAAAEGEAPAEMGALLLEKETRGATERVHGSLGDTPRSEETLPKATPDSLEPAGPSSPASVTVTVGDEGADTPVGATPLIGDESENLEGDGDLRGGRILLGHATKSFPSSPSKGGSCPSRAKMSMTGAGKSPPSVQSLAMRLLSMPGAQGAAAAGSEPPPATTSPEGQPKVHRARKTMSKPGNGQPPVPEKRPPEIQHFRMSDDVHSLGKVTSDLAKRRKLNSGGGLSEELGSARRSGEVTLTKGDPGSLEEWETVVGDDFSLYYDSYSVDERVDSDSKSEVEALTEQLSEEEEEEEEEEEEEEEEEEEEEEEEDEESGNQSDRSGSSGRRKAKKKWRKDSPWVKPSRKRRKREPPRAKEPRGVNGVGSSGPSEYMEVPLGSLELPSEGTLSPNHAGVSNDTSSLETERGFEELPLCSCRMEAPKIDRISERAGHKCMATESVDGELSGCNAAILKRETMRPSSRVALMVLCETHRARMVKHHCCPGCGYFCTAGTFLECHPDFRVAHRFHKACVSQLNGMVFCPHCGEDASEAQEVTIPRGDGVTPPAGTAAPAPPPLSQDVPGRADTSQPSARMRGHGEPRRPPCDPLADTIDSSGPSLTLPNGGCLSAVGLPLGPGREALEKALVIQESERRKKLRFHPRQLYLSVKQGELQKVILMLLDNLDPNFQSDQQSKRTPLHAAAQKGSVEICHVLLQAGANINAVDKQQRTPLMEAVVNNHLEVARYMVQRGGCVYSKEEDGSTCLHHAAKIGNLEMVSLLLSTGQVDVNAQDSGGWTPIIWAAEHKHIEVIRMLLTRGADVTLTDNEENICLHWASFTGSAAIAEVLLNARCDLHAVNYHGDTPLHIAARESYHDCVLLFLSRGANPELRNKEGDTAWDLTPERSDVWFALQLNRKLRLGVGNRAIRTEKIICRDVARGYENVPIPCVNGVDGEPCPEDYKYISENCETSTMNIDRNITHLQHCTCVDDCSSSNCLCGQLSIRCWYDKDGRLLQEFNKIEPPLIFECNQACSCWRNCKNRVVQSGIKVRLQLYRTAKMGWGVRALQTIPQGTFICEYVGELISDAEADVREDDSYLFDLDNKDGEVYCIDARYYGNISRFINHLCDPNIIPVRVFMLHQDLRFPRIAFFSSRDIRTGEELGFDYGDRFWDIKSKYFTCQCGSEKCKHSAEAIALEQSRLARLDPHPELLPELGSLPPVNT
T1 sequence (Q9H9B1 2-1298 limits assumed): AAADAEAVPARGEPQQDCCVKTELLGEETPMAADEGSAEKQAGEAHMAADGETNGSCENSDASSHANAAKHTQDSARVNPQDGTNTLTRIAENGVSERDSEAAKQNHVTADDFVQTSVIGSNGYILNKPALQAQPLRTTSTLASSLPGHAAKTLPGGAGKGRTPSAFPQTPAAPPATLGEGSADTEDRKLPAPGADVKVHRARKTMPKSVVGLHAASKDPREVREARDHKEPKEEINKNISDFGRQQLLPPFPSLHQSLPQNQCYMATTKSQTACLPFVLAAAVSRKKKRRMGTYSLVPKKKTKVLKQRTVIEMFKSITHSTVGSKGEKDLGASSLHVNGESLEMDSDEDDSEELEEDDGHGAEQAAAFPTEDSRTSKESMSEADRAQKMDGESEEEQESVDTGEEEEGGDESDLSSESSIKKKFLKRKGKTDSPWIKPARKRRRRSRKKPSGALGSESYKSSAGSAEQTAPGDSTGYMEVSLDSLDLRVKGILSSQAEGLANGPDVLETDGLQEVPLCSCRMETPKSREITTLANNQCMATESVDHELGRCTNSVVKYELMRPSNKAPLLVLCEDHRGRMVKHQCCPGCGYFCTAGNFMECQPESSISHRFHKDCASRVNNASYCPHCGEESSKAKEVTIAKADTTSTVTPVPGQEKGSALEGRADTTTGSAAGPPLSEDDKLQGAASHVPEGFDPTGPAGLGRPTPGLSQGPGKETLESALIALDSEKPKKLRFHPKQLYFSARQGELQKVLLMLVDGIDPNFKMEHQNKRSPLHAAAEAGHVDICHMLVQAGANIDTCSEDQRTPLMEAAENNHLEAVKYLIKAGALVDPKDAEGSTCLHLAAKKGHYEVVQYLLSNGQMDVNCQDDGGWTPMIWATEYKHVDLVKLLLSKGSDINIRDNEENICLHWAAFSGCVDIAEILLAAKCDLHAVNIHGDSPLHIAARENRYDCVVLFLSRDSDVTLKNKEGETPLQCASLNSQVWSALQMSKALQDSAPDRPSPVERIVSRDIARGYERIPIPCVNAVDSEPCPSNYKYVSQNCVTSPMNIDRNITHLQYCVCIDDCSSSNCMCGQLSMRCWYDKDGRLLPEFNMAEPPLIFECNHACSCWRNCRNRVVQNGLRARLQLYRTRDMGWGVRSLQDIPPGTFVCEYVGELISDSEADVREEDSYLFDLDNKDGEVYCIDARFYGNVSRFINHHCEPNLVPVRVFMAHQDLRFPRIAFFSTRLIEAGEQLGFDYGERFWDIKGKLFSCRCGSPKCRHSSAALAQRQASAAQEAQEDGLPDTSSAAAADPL
In words: Triple SILAC pull-down after UNC0638 treatment of 293T cells, DMSO/UNC0638 ratio of protein captured by 3×MBT.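 For all read-outs here: mass spectrometry (Q-Exactive) SILAC quantitation, DMSO/UNC0638 ratio computed after subtracting 3×MBTD355N mutant pull-down background, only proteins with at least twofold 3×MBT over mutant signal considered.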 In kind it is cell-based. Further details: endogenous in cells; host or cells: HEK 293T. The conditions noted are these: for Relative to UNC0638 UNC Heavy: UNC0638 in heavy SILAC media; for Relative to UNC0638 UNC Light: UNC0638 in light SILAC media; for Relative to UNC0638 Average: average of UNC Light and UNC Heavy experiments.

The next assay concerns 3×MBT domain of L3MBTL1. In words: Triple SILAC pull-down, 3xMBT/3xMBTD355N ratio (cytoplasmic, nuclear and chromatin fractions of 293T cells).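 For all read-outs here: proteins quantified with MaxQuant, requiring at least two unique peptides and quantification in both label directions, normalized to the mean of proteins from a digested loading control.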 The class given is binding, human. The following applies: for 3xMBT/D355N UNC Heavy: experiment with UNC0638 in heavy SILAC media; for 3xMBT/D355N UNC Light: experiment with UNC0638 in light SILAC media.
The mark [1] stands for this setting: SILAC ratio DMSO relative to UNC0638, pull-down with 3xMBT, all values in log base 2.
The mark [2] stands for this setting: SILAC ratio 3xMBT vs 3xMBTD355N pull-down, 293T cells, all values in log base 2.
Setting [3] is: SILAC ratio DMSO/UNC0638 of protein pulled down with 3xMBT.
The mark [4] stands for this setting: SILAC ratio, pull-down 3xMBT vs 3xMBTD355N.

The values that follow come from patent publication US20140274782A1, “AFFINITY REAGENTS AND METHODS FOR DETECTION, PURIFICATION, AND PROTEOMIC ANALYSIS OF METHYLATED PROTEINS” (The Board of Trustees of the Leland Stanford Junior …, priority 2013, published 2014).

B1: CSRP2 (protein, UniProt Q16527 1-193, looked up)
Cysteine and glycine-rich …: MPVWGGGNKCGACGRTVYHAEEVQCDGRSFHRCCFLCMVCRKNLDSTTVAIHDEEIYCKSCYGKKYGPKGYGYGQGAGTLNMDRGERLGIKPESVQPHRPTTNPNTSKFAQKYGGAEKCSRCGDSVYAAEKIIGAGKPWHKNCFRCAKCGKSLESTTLTEKEGEIYCKGCYAKNFGPKGFGYGQGAGALVHAQ
Turning to B1, in the assay with G9a and GLP (setting [1]), the “Relative to UNC0638 UNC Heavy” value is reported as −0.58 log base 2 and the “Relative to UNC0638 UNC Light” value is recorded as −0.49 log base 2. In the assay with G9a and GLP (all values in log base 2), the “Relative to UNC0638 Average” value is −0.54 log base 2. In addition, in the assay with 3×MBT domain of L3MBTL1 (setting [2]), the “3xMBT/D355N UNC Heavy” value is recorded as 1.27 log base 2 and the “3xMBT/D355N UNC Light” value came out at 1.96 log base 2.

B2: CTNND1 (protein, UniProt O60716 1-968, looked up)
Catenin delta-1: MDDSEVESTASILASVKEQEAQFEKLTRALEEERRHVSAQLERVRVSPQDANPLMANGTLTRRHQNGRFVGDADLERQKFSDLKLNGPQDHSHLLYSTIPRMQEPGQIVETYTEEDPEGAMSVVSVETSDDGTTRRTETTVKKVVKTVTTRTVQPVAMGPDGLPVDASSVSNNYIQTLGRDFRKNGNGGPGPYVGQAGTATLPRNFHYPPDGYSRHYEDGYPGGSDNYGSLSRVTRIEERYRPSMEGYRAPSRQDVYGPQPQVRVGGSSVDLHRFHPEPYGLEDDQRSMGYDDLDYGMMSDYGTARRTGTPSDPRRRLRSYEDMIGEEVPSDQYYWAPLAQHERGSLASLDSLRKGGPPPPNWRQPELPEVIAMLGFRLDAVKSNAAAYLQHLCYRNDKVKTDVRKLKGIPVLVGLLDHPKKEVHLGACGALKNISFGRDQDNKIAIKNCDGVPALVRLLRKARDMDLTEVITGTLWNLSSHDSIKMEIVDHALHALTDEVIIPHSGWEREPNEDCKPRHIEWESVLTNTAGCLRNVSSERSEARRKLRECDGLVDALIFIVQAEIGQKDSDSKLVENCVCLLRNLSYQVHREIPQAERYQEAAPNVANNTGPHAASCFGAKKGKDEWFSRGKKPIEDPANDTVDFPKRTSPARGYELLFQPEVVRIYISLLKESKTPAILEASAGAIQNLCAGRWTYGRYIRSALRQEKALSAIADLLTNEHERVVKAASGALRNLAVDARNKELIGKHAIPNLVKNLPGGQQNSSWNFSEDTVISILNTINEVIAENLEAAKKLRETQGIEKLVLINKSGNRSEKEVRAAALVLQTIWGYKELRKPLEKEGWKKSDFQVNLNNASRSQSSHSYDDSTLPLIDRNQKSDKKPDREEIQMSNMGSNTKSLDNNYSTPNERGDHNRTLDRSGDLGDMEPLKGTTPLMQDEGQESLEEELDVLVLDDEGGQVSYPSMQKI
With B2, in the assay with G9a and GLP (setting [1]), the “Relative to UNC0638 UNC Light” value was −0.49 log base 2. For the same molecule, the “Relative to UNC0638 Average” value with G9a and GLP (all values in log base 2) is −0.49 log base 2. Besides, in the assay on 3×MBT domain of L3MBTL1 (setting [2]), the “3xMBT/D355N UNC Heavy” value was determined as 0.67 log base 2 and the “3xMBT/D355N UNC Light” value is 2.07 log base 2.

B3: DDX46 (protein, UniProt Q7L014 2-1031, looked up)
Probable ATP-dependent RNA …: GRESRHYRKRSASRGRSGSRSRSRSPSDKRSKRGDDRRSRSRDRDRRRERSRSRDKRRSRSRDRKRLRRSRSRERDRSRERRRSRSRDRRRSRSRSRGRRSRSSSPGNKSKKTENRSRSKEKTDGGESSKEKKKDKDDKEDEKEKDAGNFDQNKLEEEMRKRKERVEKWREEQRKKAMENIGELKKEIEEMKQGKKWSLEDDDDDEDDPAEAEKEGNEMEGEELDPLDAYMEEVKEEVKKFNMRSVKGGGGNEKKSGPTVTKVVTVVTTKKAVVDSDKKKGELMENDQDAMEYSSEEEEVDLQTALTGYQTKQRKLLEPVDHGKIEYEPFRKNFYVEVPELAKMSQEEVNVFRLEMEGITVKGKGCPKPIKSWVQCGISMKILNSLKKHGYEKPTPIQTQAIPAIMSGRDLIGIAKTGSGKTIAFLLPMFRHIMDQRSLEEGEGPIAVIMTPTRELALQITKECKKFSKTLGLRVVCVYGGTGISEQIAELKRGAEIIVCTPGRMIDMLAANSGRVTNLRRVTYVVLDEADRMFDMGFEPQVMRIVDNVRPDRQTVMFSATFPRAMEALARRILSKPIEVQVGGRSVVCSDVEQQVIVIEEEKKFLKLLELLGHYQESGSVIIFVDKQEHADGLLKDLMRASYPCMSLHGGIDQYDRDSIINDFKNGTCKLLVATSVAARGLDVKHLILVVNYSCPNHYEDYVHRAGRTGRAGNKGYAYTFITEDQARYAGDIIKALELSGTAVPPDLEKLWSDFKDQQKAEGKIIKKSSGFSGKGFKFDETEQALANERKKLQKAALGLQDSDDEDAAVDIDEQIESMFNSKKRVKDMAAPGTSSVPAPTAGNAEKLEIAKRLALRINAQKNLGIESQDVMQQATNAILRGGTILAPTVSAKTIAEQLAEKINAKLNYVPLEKQEEERQDGGQNESFKRYEEELEINDFPQTARWKVTSKEALQRISEYSEAAITIRGTYFPPGKEPKEGERKIYLAIESANELAVQKAKAEITRLIKEELIRLQNSYQPTNKGRYKVL
With B3, in the assay with G9a and GLP (setting [3]), the “Relative to UNC0638 UNC Heavy” value turned out to be 0.53 log base 2 and the “Relative to UNC0638 UNC Light” value came out at 0.33 log base 2. Moreover, the “Relative to UNC0638 Average” value with G9a and GLP is 0.43 log base 2. Also, in the assay with G9a and GLP (reduced association with 3xMBT after UNC0638 treatment), the “Candidate G9a/GLP target” value was “✓”. In the assay on 3×MBT domain of L3MBTL1 (setting [4]), the “3xMBT/D355N UNC Heavy” value worked out at 2.10 log base 2 and the “3xMBT/D355N UNC Light” value came to 2.67 log base 2.
